Key:
[1] = target: FITC labeled phosphorylated MST1 T353 peptide (human); assay: fluorescence polarisation; 20 nM FITC-labelled peptide, MOB protein titrated (12 points, triplicate); 25 mM HEPES pH 7.5, 150 mM NaCl, 2 mM DTT, 1 mg/ml BSA; one site-specific binding fit
[2] = target: FITC labeled phosphorylated MST1 T367 peptide (human); assay: as above

Binder | Kd [1] [nM] | Kd [2] [nM]
MOB1A wild-type (natural protein) SFLFSSRSSKTFKPKKNIPEGSHQYELLKHAEATLGSGNLRQAVMLPEGEDLNEWIAVNTVDFFNQINMLYGTITEFCTEASCPVMSAGPRYEYHWADGTNIKKPIKCSAPKYIDYLMTWVQDQLDDETLFPSKIGVPFPKNFMSVAKTILKRLFRVYAHIYHQHFDSVMQLQEEAHLNTSFKHFIFFVQEFNLIDRRELAPLQELIEKLGSKDR | 280 | 680
MOB4 (tags cleaved) (natural protein) VMAEGTAVLRRNRPGTKAQDFYNWPDESFDEMDSTLAVQQYIQQNIRADCSNIDKILEPPEGQDEGVWKYEHLRQFCLELNGLAVKLQSECHPDTCTQMTATEQWIFLCAAHKTPKECPAIDYTRHTLDGAACLLNSNKYFPSRVSIKESSVAKLGSVCRRIYRIFSHAYFHHRQIFDEYENETFLCHRFTKFVMKYNLMSKDNLIVPILEEEVQNSVSGESEA |  | 12200
